Bridges are numbered along the chain shown (N, C = ends). Primed or numbered codes have the meaning given here. Where no end group is shown, it is not given here. [ ]: non-standard residue; d: D form. The star is where a group is joined. Cypate = CC1(C)C(/C=C/C=C/C=C/C=C2/N(CCC(=O)*)c3ccc4ccccc4c3C2(C)C)=[N+](CCC(=O)O)c2ccc3ccccc3c21; DOTA = O=C(O)CN1CCN(CC(=O)O)CCN(CC(=O)*)CCN(CC(=O)O)CC1; DTPA = O=C(O)CN(CCN(CC(=O)O)CC(=O)O)CCN(CC(=O)O)CC(=O)*; Cypate′ = NIR carbocyanine dye; Ahx = NCCCCCC(=O)O; βAla = NCCC(=O)O
B1: Cypate-cyclo(CRGDSC)-NH2 (peptide)
peptide: CRGDSC
HELM: PEPTIDE1{[CC1(C)C(/C=C/C=C/C=C/C=C2/N(CCC(=O)[*:2])c3ccc4ccccc4c3C2(C)C)=[N+](CCC(=O)O)c2ccc3ccccc3c21].C.R.G.D.S.C.[am]}$PEPTIDE1,PEPTIDE1,2:R3-7:R3$$$V2.0
SMILES: CC1(C)C(/C=C/C=C/C=C/C=C2/N(CCC(=O)N[C@H]3CSSC[C@@H](C(N)=O)NC(=O)[C@H](CO)NC(=O)[C@H](CC(=O)O)NC(=O)CNC(=O)[C@H](CCCNC(=N)N)NC3=O)c3ccc4ccccc4c3C2(C)C)=[N+](CCC(=O)O)c2ccc3ccccc3c21
notes: also called Cypate-[Cyclo-(Cys-Arg-Gly-Asp-Ser-Cys)]1
B2: Cypate-Cyclo(Cys-Arg-Gly-Asp-Cys)-NH2 (peptide)
peptide: CRGDC
HELM: PEPTIDE1{[CC1(C)C(/C=C/C=C/C=C/C=C2/N(CCC(=O)[*:2])c3ccc4ccccc4c3C2(C)C)=[N+](CCC(=O)O)c2ccc3ccccc3c21].C.R.G.D.C.[am]}$PEPTIDE1,PEPTIDE1,2:R3-6:R3$$$V2.0
SMILES: CC1(C)C(/C=C/C=C/C=C/C=C2/N(CCC(=O)N[C@H]3CSSC[C@@H](C(N)=O)NC(=O)[C@H](CC(=O)O)NC(=O)CNC(=O)[C@H](CCCNC(=N)N)NC3=O)c3ccc4ccccc4c3C2(C)C)=[N+](CCC(=O)O)c2ccc3ccccc3c21
notes: also called Cypate-cyclo(CRGDC)-NH2
B3: H-B-Ala-Asp-Cys-Arg-Gly-Asp-Cys(Et)-Phe-Val-OH (peptide)
peptide: H-[βAla]DCRGDC(Et)FV-OH
SMILES: CCSC[C@H](NC(=O)[C@H](CC(=O)O)NC(=O)CNC(=O)[C@H](CCCNC(=N)N)NC(=O)[C@H](CS)NC(=O)[C@H](CC(=O)O)NC(=O)CCN)C(=O)N[C@@H](Cc1ccccc1)C(=O)N[C@H](C(=O)O)C(C)C
B4: Cyclo(Arg-Gly-Asp-DPhe-Asp)-EAhx-Lys-OH (peptide)
peptide: RGD[dF]D[Ahx]K-OH
modifications: lactam N-5; also: cyclo Arg1-Asp5: which Asp5 carboxyl (side chain or α) closes ring not given here
B5: Cyclo(DPhe-Val-Lys-Arg-Gly-Asp)-OH (peptide)
peptide: XVKRGD
HELM: PEPTIDE1{[dF].V.K.R.G.D}$PEPTIDE1,PEPTIDE1,1:R1-6:R2$$$V2.0
SMILES: CC(C)[C@@H]1NC(=O)[C@@H](Cc2ccccc2)NC(=O)[C@H](CC(=O)O)NC(=O)CNC(=O)[C@H](CCCNC(=N)N)NC(=O)[C@H](CCCCN)NC1=O
B6: Cypate-[Cyclo(Cys-Arg-Gly-Asp-Ser-Cys)-NH2]1-(D-Glucosamine) (peptide)
peptide: CRGDSC-NH2
modifications: disulfide 1-6; not fully specified (N-terminus); printed as Cypate-[Cyclo(Cys-Arg-Gly-Asp-Ser-Cys)-NH2]1-(D-Glucosamine); also: D-glucosamine attached to cypate
B7: DTPA-DPhe-Cyclo(Cys-Tyr-DTrp-Lys-Thr-Cys)-Thr-Val-Arg-Gly-Asp-DPhe-NH2 (peptide)
peptide: XCYXKTCTVRGDX
HELM: PEPTIDE1{[O=C(O)CN(CCN(CC(=O)O)CC(=O)O)CCN(CC(=O)O)CC(=O)[*:2]].[dF].C.Y.[dW].K.T.C.T.V.R.G.D.[dF].[am]}$PEPTIDE1,PEPTIDE1,3:R3-8:R3$$$V2.0
SMILES: CC(C)[C@H](NC(=O)[C@@H](NC(=O)[C@@H]1CSSC[C@H](NC(=O)[C@@H](Cc2ccccc2)NC(=O)CN(CCN(CCN(CC(=O)O)CC(=O)O)CC(=O)O)CC(=O)O)C(=O)N[C@@H](Cc2ccc(O)cc2)C(=O)N[C@H](Cc2c[nH]c3ccccc23)C(=O)N[C@@H](CCCCN)C(=O)N[C@@H]([C@@H](C)O)C(=O)N1)[C@@H](C)O)C(=O)N[C@@H](CCCNC(=N)N)C(=O)NCC(=O)N[C@@H](CC(=O)O)C(=O)N[C@H](Cc1ccccc1)C(N)=O
B8: DOTA-Arg-Gly-Asp-Ser-Pro-Lys(Cypate)-NH2 (peptide)
peptide: {DOTA}-RGDSPK(Cypate)-NH2
SMILES: CC1(C)C(/C=C/C=C/C=C/C=C2/N(CCC(=O)NCCCC[C@H](NC(=O)[C@@H]3CCCN3C(=O)[C@H](CO)NC(=O)[C@H](CC(=O)O)NC(=O)CNC(=O)[C@H](CCCNC(=N)N)NC(=O)CN3CCN(CC(=O)O)CCN(CC(=O)O)CCN(CC(=O)O)CC3)C(N)=O)c3ccc4ccccc4c3C2(C)C)=[N+](CCC(=O)O)c2ccc3ccccc3c21
B9: H-DPhe-Cyclo(Cys-Tyr-DTrp-Lys-Thr-Cys)-Thr-Val-Arg-Gly-Asp-DPhe-NH2 (peptide)
peptide: XCYXKTCTVRGDX
HELM: PEPTIDE1{[dF].C.Y.[dW].K.T.C.T.V.R.G.D.[dF].[am]}$PEPTIDE1,PEPTIDE1,2:R3-7:R3$$$V2.0
SMILES: CC(C)[C@H](NC(=O)[C@@H](NC(=O)[C@@H]1CSSC[C@H](NC(=O)[C@H](N)Cc2ccccc2)C(=O)N[C@@H](Cc2ccc(O)cc2)C(=O)N[C@H](Cc2c[nH]c3ccccc23)C(=O)N[C@@H](CCCCN)C(=O)N[C@@H]([C@@H](C)O)C(=O)N1)[C@@H](C)O)C(=O)N[C@@H](CCCNC(=N)N)C(=O)NCC(=O)N[C@@H](CC(=O)O)C(=O)N[C@H](Cc1ccccc1)C(N)=O
B10: DTPA-Val-Arg-Gly-Asp-DPhe-Cyclo(Cys-Tyr-DTrp-Lys-Thr-Cys)-Thr-NH2 (peptide)
peptide: VRGDXCYXKTCT
HELM: PEPTIDE1{[O=C(O)CN(CCN(CC(=O)O)CC(=O)O)CCN(CC(=O)O)CC(=O)[*:2]].V.R.G.D.[dF].C.Y.[dW].K.T.C.T.[am]}$PEPTIDE1,PEPTIDE1,7:R3-12:R3$$$V2.0
SMILES: CC(C)[C@H](NC(=O)CN(CCN(CCN(CC(=O)O)CC(=O)O)CC(=O)O)CC(=O)O)C(=O)N[C@@H](CCCNC(=N)N)C(=O)NCC(=O)N[C@@H](CC(=O)O)C(=O)N[C@H](Cc1ccccc1)C(=O)N[C@H]1CSSC[C@@H](C(=O)N[C@H](C(N)=O)[C@@H](C)O)NC(=O)[C@H]([C@@H](C)O)NC(=O)[C@H](CCCCN)NC(=O)[C@@H](Cc2c[nH]c3ccccc23)NC(=O)[C@H](Cc2ccc(O)cc2)NC1=O
B11: H-DPhe-Cyclo(Cys-Tyr-DTrp-Lys-Thr-Cys)-Thr-Val-Arg-Gly-Asp-NH2 (peptide)
peptide: XCYXKTCTVRGD
HELM: PEPTIDE1{[dF].C.Y.[dW].K.T.C.T.V.R.G.D.[am]}$PEPTIDE1,PEPTIDE1,2:R3-7:R3$$$V2.0
SMILES: CC(C)[C@H](NC(=O)[C@@H](NC(=O)[C@@H]1CSSC[C@H](NC(=O)[C@H](N)Cc2ccccc2)C(=O)N[C@@H](Cc2ccc(O)cc2)C(=O)N[C@H](Cc2c[nH]c3ccccc23)C(=O)N[C@@H](CCCCN)C(=O)N[C@@H]([C@@H](C)O)C(=O)N1)[C@@H](C)O)C(=O)N[C@@H](CCCNC(=N)N)C(=O)NCC(=O)N[C@@H](CC(=O)O)C(N)=O
B12: H-Val-Arg-Gly-Asp-DPhe-Cyclo(Cys-Tyr-DTrp-Lys-Thr-Cys)-Thr-NH2 (peptide)
peptide: VRGDXCYXKTCT
HELM: PEPTIDE1{V.R.G.D.[dF].C.Y.[dW].K.T.C.T.[am]}$PEPTIDE1,PEPTIDE1,6:R3-11:R3$$$V2.0
SMILES: CC(C)[C@H](N)C(=O)N[C@@H](CCCNC(=N)N)C(=O)NCC(=O)N[C@@H](CC(=O)O)C(=O)N[C@H](Cc1ccccc1)C(=O)N[C@H]1CSSC[C@@H](C(=O)N[C@H](C(N)=O)[C@@H](C)O)NC(=O)[C@H]([C@@H](C)O)NC(=O)[C@H](CCCCN)NC(=O)[C@@H](Cc2c[nH]c3ccccc23)NC(=O)[C@H](Cc2ccc(O)cc2)NC1=O
B13: Cyclo(Arg-Gly-Asp-DPhe-Asp)-Lys-NH2 (peptide)
peptide: RGD[dF]DK-NH2
modifications: lactam N-5; also: cyclo Arg1-Asp5: which Asp5 carboxyl (side chain or α) closes ring not given here
B14: DTPA-His-Asp-Cys(Et)-Arg-Gly-Asp-Cys(Et)-Phe-Lys-OH (peptide)
peptide: {DTPA}-HDC(Et)RGDC(Et)FK-OH
SMILES: CCSC[C@H](NC(=O)[C@H](CC(=O)O)NC(=O)CNC(=O)[C@H](CCCNC(=N)N)NC(=O)[C@H](CSCC)NC(=O)[C@H](CC(=O)O)NC(=O)[C@H](Cc1c[nH]cn1)NC(=O)CN(CCN(CCN(CC(=O)O)CC(=O)O)CC(=O)O)CC(=O)O)C(=O)N[C@@H](Cc1ccccc1)C(=O)N[C@@H](CCCCN)C(=O)O

Target: T1, purified human αvβ3 integrin protein (human, UniProt P06756 31-1048; P05106 27-788)
T1 construct: Bought heterodimer; also called ABI; purified αvβ3 integrin
T1 sequence (P06756 31-1048, form in doubt, chain 1 of 2): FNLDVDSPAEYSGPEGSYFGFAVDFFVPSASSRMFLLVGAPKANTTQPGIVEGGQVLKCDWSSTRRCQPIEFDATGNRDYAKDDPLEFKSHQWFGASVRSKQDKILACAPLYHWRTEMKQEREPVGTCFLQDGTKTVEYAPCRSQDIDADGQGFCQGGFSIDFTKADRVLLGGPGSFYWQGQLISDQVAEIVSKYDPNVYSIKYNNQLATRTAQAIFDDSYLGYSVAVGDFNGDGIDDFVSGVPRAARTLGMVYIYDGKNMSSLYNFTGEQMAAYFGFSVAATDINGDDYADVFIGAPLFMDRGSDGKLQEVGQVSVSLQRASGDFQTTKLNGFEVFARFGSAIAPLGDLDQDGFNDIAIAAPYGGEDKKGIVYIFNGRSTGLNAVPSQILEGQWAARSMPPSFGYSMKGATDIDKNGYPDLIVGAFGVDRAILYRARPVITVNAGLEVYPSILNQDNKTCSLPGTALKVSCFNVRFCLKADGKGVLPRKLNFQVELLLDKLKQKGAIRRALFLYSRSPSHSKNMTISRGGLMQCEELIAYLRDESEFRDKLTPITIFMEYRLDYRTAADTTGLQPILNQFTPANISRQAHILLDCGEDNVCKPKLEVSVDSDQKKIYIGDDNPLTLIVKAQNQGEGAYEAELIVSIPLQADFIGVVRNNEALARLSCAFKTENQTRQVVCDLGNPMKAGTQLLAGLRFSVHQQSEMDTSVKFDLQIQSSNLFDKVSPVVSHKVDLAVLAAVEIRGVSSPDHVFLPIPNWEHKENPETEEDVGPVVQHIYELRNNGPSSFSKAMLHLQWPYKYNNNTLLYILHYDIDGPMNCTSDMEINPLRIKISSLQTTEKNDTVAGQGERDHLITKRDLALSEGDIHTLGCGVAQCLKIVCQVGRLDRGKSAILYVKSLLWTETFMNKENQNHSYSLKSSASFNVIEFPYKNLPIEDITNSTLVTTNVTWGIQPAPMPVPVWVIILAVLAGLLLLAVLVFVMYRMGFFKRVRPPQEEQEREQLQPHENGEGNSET
T1 sequence (P05106 27-788, form in doubt, chain 2 of 2): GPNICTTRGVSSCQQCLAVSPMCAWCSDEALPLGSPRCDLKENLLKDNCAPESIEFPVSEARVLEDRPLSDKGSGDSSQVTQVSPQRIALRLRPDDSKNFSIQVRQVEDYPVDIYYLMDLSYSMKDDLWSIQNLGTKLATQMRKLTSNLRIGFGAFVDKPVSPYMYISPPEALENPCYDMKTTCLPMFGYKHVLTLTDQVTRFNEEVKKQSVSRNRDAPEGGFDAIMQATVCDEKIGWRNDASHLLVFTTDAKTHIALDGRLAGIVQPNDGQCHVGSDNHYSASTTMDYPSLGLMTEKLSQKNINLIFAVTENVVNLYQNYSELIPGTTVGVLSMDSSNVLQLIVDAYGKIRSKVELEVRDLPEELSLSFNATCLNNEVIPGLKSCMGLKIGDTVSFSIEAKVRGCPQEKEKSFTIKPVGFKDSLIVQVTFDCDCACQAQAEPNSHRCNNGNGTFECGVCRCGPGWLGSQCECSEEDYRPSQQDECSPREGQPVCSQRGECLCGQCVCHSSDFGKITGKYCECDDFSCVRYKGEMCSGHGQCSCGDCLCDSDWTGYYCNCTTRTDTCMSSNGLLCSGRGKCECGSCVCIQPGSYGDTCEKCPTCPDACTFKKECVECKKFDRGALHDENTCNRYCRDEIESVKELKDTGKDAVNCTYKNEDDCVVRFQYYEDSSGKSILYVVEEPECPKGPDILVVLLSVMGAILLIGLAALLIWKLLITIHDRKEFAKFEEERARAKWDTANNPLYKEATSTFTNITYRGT
Test: competition with 125I-echistatin on purified human αvβ3 integrin, filter plate
Method: (§1) The binding affinities were measured based on the competitive binding between purified αᵥβ₃ integrin (ABI) and peptide ligands.
(§2) Receptor binding assays were performed by using purified human αᵥβ₃ integrin protein from Chemicon International, Inc. (Temecula, Calif.). Assays were carried out using the Millipore Duropore membrane 96-well plates and the Millipore MultiScreen system (Bedford, Mass.). […] The concentration range of ligand was between 0.01 μM and 100 μM. The mixtures were incubated for 2 h at room temperature, the ABI was then filtered by centrifugation at 1500 g and washed three times with 0.20 mL of ice-cold binding buffer. The filters containing radioactivity bound ABI were removed using a punch apparatus and counted using a Packard Cobra II Auto-gamma counter (Meriden, Conn.). […] The 50% inhibitory concentrations (IC₅₀) were calculated by nonlinear regression analysis by use of the GraphPad Prism 4 computer fitting program (GraphPad Software, Inc., San Diego, Calif.).

| IC50 [µM] | Binder |
| --- | --- |
| 1.14 | B1 |
| 4.6 | B2 |

Target: T1, purified human αvβ3 integrin protein
Test: as above
Remark: another data set of the same source
Method: as §1, §2

| IC50 [µM] | Binder |
| --- | --- |
| 0.329 | B3 |
| 1.11 | {DTPA}-[dF]CY[dW]KTCTVRGD-NH2 (disulfide 2-7) [DTPA-DPhe-Cyclo(Cys-Tyr-DTrp-Lys-Thr-Cys)-Thr-Val-Arg-Gly-Asp-NH2] |
| 325 | {Cypate′}-VRGD[dF]CY[dW]KTCT-OH (disulfide 6-11) [Cypate-Val-Arg-Gly-Asp-DPhe-Cyclo(Cys-Tyr-DTrp-Lys-Thr-Cys)-Thr-OH] |
| 4.42 | {Cypate′}-[dF]CY[dW]KTCTVRGD-NH2 (disulfide 2-7) [Cypate-DPhe-Cyclo(Cys-Tyr-DTrp-Lys-Thr-Cys)-Thr-Val-Arg-Gly-Asp-NH2] |
| 1.94 | B4 |
| 1 | H-RGDSPK(Cypate)-NH2 [H-Arg-Gly-Asp-Ser-Pro-Lys(Cypate)-NH2] |
| 266 | {Cypate(2)}-GRDSPK-OH [Cypate(2)-Gly-Arg-Asp-Ser-Pro-Lys-OH] |
| 0.0656 | {Cypate′}-[βAla]RGD[Ahx]RGD[Ahx]RGDSPK-OH [Cypate-BAla-Arg-Gly-Asp-EAhx-Arg-Gly-Asp-EAhx-Arg-Gly-Asp-Ser-Pro-Lys-OH] |
| 0.353 | {DTPA}-GRGDSPK-OH [DTPA-Gly-Arg-Gly-Asp-Ser-Pro-Lys-OH] |
| 350 | {DOTA}-GRDSPK-OH (also called DOTA-GRD) [DOTA-Gly-Arg-Asp-Ser-Pro-Lys-OH] |
| 1.89 | B5 |
| 0.275 | B6 |
| 0.694 | {DOTA}-RGDSPK-OH [DOTA-Arg-Gly-Asp-Ser-Pro-Lys-OH] |
| 0.945 | B7 |
| 0.722 | B8 |
| 0.411 | H-HDRGDCFK-OH [H-His-Asp-Arg-Gly-Asp-Cys-Phe-Lys-OH] |
| 0.000977 | {Cypate′}-[βAla]CRGDC[dF]V-NH2 (disulfide 2-6) [Cypate-BAla-Cyclo(Cys-Arg-Gly-Asp-Cys)-DPhe-Val-NH2] |
| 0.357 | B9 |
| 2670 | {Cypate(3)}-GRDSPK-OH [Cypate(3)-Gly-Arg-Asp-Ser-Pro-Lys-OH] |
| 0.849 | {DTPA}-GRDSPK-OH [DTPA-Gly-Arg-Asp-Ser-Pro-Lys-OH] |
| 3.02 | {Cypate′}-KRGD[dF][Ahx]-NH2 [Cypate-Lys-Arg-Gly-Asp-DPhe-EAhx-NH2] |
| 0.584 | B10 |
| 0.722 | B11 |
| 1.68 | B12 |
| 1.74 | B13 |
| 0.712 | B14 |
| 1.94 | Cypate-RGDS-NH2 (also: cypate also carries one D-glucosamine) [Cypate(Arg-Gly-Asp-Ser-NH2)1-(D-Glucosamine)] |
